In patent publication US20130115626A1 (Genentech, published 2013):

Target: T1, full length human NRP1 on transfected HEK-293 cells (human, UniProt O14786 22-923)
T1 construct: whole, on cells; also called HEK-293 cells transfected with human NRP1
Test: immunohistochemistry on transfected HEK-293 cells, antibody at 1 ug/ml; cells with empty vector as negative control
Experimental: Immunohistochemistry (IHC) was performed on freshly cut tissue sections following standard procedure. […] The specificity of the anti-NRP1 antibody was assessed using HEK-293 cells transfected with human NRP1 and empty vector as control (see FIGS. 1A and 1B). To assess expression, whole sections were scored semi-quantitatively on a scale of zero (no expression) to three (very strong signal), according to the intensity of chromagen deposition in ≧10% of neoplastic cells or endothelium.

T1 sequence (O14786 22-923): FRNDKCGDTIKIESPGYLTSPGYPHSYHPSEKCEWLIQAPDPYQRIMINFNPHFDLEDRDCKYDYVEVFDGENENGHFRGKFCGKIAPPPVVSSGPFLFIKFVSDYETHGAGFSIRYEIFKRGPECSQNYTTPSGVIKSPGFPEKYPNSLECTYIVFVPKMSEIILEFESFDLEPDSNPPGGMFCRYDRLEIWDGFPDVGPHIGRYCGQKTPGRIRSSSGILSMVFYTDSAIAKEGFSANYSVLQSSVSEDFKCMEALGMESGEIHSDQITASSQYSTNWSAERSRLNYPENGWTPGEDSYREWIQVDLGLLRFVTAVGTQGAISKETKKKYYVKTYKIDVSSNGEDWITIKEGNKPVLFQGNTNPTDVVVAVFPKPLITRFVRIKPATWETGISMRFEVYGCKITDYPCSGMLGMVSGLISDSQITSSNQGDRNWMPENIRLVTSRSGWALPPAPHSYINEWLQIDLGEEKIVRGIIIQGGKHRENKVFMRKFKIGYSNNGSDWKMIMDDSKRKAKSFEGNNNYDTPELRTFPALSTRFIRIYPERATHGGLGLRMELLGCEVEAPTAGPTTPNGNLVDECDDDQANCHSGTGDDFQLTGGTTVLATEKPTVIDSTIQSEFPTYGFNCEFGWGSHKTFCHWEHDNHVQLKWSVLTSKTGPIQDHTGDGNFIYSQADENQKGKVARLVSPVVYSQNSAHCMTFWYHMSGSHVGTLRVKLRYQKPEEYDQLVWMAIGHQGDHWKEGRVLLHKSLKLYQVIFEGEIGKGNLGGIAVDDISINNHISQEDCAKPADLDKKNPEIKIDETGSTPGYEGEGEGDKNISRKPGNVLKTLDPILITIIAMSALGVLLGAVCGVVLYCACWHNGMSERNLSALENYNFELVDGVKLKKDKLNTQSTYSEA

binding result: binds
B1: monoclonal anti-NRP1 antibody 7130 (antibody, V domains shown)
VH: QLVEESGGGLVTPGGTLTLTCTASGFTISNYHMSWVRQAPGKGLEWIGIIYAVSAATWSATWVKGRFTISKTLTTVDLKMTSLTAADTATYFCARVRAPGDSTYYDLWGPGTLVTVSS
VL: AVVMTQTASPVSAVVGGTVTINCQASQTISNNWLSWYQQKPGQPPKLLIYKASILASGVPSRFSGSGSGTEFTLTISGVQCDDAATYYCLYGHYITTSAHNAFGGGTEVVVKG
notes: Rabbit monoclonal antibody from a hybridoma (rabbit immunised with human soluble NRP1)
